# According to US20070231333A1, “ANTI-5T4 ANTIBODIES AND USES THEREOF” (Wyeth, priority 2006, published 2007):
# T1: human 5T4 ectodomain Fc (Homo sapiens, UniProt Q13641)
# T1 construct: Human; 100; 1-355; made in house; host or cells: COS-1 cells (transient)
# T1 sequence (Q13641 32-355): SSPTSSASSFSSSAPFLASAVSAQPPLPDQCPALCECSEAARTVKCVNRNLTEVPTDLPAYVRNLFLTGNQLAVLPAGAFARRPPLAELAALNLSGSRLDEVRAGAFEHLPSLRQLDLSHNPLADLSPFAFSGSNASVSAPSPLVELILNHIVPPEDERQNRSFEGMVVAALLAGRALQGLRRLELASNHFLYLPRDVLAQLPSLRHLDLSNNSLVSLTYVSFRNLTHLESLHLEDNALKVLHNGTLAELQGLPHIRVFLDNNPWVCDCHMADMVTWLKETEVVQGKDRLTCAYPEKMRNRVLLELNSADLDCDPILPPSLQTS
# T2: mouse 5T4 ectodomain Fc (Mus musculus, UniProt Q9Z0L0)
# T2 construct: mouse 5T4 (amino acids 1-361); made in house; host or cells: COS-1 cells (transient)
# T2 sequence (Q9Z0L0 32-361): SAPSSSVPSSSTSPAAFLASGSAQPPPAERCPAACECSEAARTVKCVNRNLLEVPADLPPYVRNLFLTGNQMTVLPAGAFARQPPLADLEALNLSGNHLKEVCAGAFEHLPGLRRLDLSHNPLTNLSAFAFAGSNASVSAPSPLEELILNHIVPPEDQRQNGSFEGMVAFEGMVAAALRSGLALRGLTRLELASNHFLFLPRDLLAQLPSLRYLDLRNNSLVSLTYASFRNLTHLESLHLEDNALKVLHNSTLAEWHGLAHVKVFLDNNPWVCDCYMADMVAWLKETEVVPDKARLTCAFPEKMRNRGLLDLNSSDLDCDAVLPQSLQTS
# T3: cynomologous monkey 5T4 ectodomain Fc (Macaca fascicularis, UniProt Q4R8Y9, G135A/G313E/S41F)
# T3 construct: cynomologous monkey 5T4 (amino acids 1-355); made in house; host or cells: COS-1 cells (transient)
# T3 sequence (Q4R8Y9 35-355 S41F/G135A/G313E): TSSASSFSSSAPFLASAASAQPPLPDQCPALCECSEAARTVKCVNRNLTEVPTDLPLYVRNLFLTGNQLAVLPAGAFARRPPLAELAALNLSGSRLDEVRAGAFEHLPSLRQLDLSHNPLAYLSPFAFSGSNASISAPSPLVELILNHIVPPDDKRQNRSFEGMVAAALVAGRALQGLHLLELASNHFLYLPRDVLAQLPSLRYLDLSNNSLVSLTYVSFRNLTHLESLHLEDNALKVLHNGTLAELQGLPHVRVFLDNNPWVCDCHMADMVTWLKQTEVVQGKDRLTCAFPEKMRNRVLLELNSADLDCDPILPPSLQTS
# T4: rat 5T4 ectodomain Fc (Rattus norvegicus, UniProt Q5PQV5)
# T4 construct: rat 5T4 (amino acids 1-361); made in house; host or cells: COS-1 cells (transient)
# T4 sequence (Q5PQV5 32-361): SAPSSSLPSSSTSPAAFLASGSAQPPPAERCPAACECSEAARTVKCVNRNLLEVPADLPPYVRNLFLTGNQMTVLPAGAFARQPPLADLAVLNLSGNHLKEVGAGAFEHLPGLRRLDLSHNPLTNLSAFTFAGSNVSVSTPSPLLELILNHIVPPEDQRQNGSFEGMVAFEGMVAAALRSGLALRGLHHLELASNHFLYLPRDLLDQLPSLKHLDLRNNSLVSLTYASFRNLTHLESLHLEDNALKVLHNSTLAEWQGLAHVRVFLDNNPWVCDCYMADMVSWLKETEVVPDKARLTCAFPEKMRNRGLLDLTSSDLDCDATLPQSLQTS
# T5: 5T4-expressing PC14PE6 cells (Homo sapiens, UniProt Q13641)
# T5 construct: endogenous in cells; host or cells: PC14PE6 cells
# T5 sequence (Q13641 32-420): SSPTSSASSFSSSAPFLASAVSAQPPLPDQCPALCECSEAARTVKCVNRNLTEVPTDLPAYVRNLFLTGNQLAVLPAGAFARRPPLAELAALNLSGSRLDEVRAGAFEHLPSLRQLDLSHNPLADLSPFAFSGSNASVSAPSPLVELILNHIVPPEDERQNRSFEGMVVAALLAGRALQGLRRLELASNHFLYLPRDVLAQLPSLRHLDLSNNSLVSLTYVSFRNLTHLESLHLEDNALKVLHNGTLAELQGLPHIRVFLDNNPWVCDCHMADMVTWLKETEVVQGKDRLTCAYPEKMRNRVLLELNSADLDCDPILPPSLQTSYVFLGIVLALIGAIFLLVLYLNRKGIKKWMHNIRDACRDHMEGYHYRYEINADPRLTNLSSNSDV
# B1: A2: murine anti-5T4 monoclonal antibody (IgG2b heavy chain); VH residues 19-135 of SEQ ID NO:6, VL residues 23-130 of SEQ ID NO:8 (antibody, listed as Mus musculus, V domains shown)
# VH: MEWRIFLFILSGTAGVHSQVQLQQSRPELVKPGASVKMSCKASGYTFTDYVISWVKQRTGQGLEWIGEIYPGSNSIYYNEKFKGRATLTADKSSSTAYMQLSSLTSEDSAVYFCAMGGNYGFDYWGQGTTLTVSS
# VL: MDFQVQIFSFLLISASVIMSRGQIVLTQSPAIMSASLGERVTLTCTASSSVNSNYLHWYQQKPGSSPKLWIYSTSNLASGVPARFSGSGSGTSYSLTISSMEAEDAATYYCHQYHRSPLTFGAGTKLELK
# modifications: (1)..(18) leader sequence; (19)..(135) heavy chain variable region; (44)..(53) CDR1; (68)..(84) CDR2; (117)..(124) CDR3; (1)..(22) leader sequence; (23)..(130) light chain variable region; (46)..(56) CDR1; (73)..(79) CDR2; (112)..(120) CDR3
# How the values were obtained:
# [1] = target: T1, human 5T4 ectodomain Fc; experiment: Epitope mapping ELISA, 5T4 ectodomain Fc fusions; type: binding; parameters: key: +: binding; −: no binding; +/−: partial binding
# Method: (§1) To identify the epitopes to which each of the A1, A2, A3, and H8 antibodies bind, ELISA assays were performed using (1) 5T4 ectodomain Fc constructs with deleted or mutated sequences, and (2) 5T4 chimera constructs transiently expressed in COS-1 cells. The ectodomain includes the amino-terminal region, two leucine-rich repeats, and the intervening hydrophilic region. Fusion proteins containing a 5T4 ectodomain and a Fc constant regions from human IgG1 were prepared using mouse 5T4 (amino acids 1-361), rat 5T4 (amino acids 1-361), cynomologous monkey 5T4 (amino acids 1-355), chimpanzee 5T4 (amino acids 1-355), and black-tailed marmoset (amino acids 1-355). The 5T4 chimera constructs are depicted in FIG. 5. The binding results are summarized in Table 5, which indicates specific binding, partial binding, or lack of binding, by each of the H8, A1, A2, and A3 antibodies.
# [2] = target: T2, mouse 5T4 ectodomain Fc; experiment: Epitope mapping ELISA, 5T4 ectodomain Fc fusions; type: binding; parameters: key: +: binding; −: no binding; +/−: partial binding
# Method: as §1
# [3] = system: chimpanzee 5T4 ectodomain Fc; experiment: Epitope mapping ELISA, 5T4 ectodomain Fc fusions; type: binding; parameters: key: +: binding; −: no binding; +/−: partial binding
# Method: as §1
# [4] = system: black-tailed marmoset 5T4 ectodomain Fc; experiment: Epitope mapping ELISA, 5T4 ectodomain Fc fusions; type: binding; parameters: key: +: binding; −: no binding; +/−: partial binding
# black-tailed marmoset 5T4 ectodomain Fc, sequence (as listed by the source): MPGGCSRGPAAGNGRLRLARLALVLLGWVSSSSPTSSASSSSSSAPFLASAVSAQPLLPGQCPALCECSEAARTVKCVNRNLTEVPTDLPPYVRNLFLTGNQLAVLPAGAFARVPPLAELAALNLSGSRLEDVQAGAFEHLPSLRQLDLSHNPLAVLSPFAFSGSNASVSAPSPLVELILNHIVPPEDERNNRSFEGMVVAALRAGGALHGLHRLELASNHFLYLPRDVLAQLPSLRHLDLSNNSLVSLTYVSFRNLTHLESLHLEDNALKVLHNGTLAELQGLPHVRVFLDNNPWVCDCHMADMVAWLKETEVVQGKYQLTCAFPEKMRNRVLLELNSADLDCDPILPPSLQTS
# Method: as §1
# [5] = target: T3, cynomologous monkey 5T4 ectodomain Fc; experiment: Epitope mapping ELISA, 5T4 ectodomain Fc fusions; type: binding; parameters: key: +: binding; −: no binding; +/−: partial binding
# Method: as §1
# [6] = target: T4, rat 5T4 ectodomain Fc; experiment: Epitope mapping ELISA, 5T4 ectodomain Fc fusions; type: binding; parameters: key: +: binding; −: no binding; +/−: partial binding
# Method: as §1
# [7] = target: T5, 5T4-expressing PC14PE6 cells; experiment: FACS binding to 5T4-expressing PC14PE6 cells; type: cell-based
# Method: The ability of the H8, A1, A2, and A3 antibodies to bind cells expressing 5T4 antigen was assayed using fluorescence activated cell sorting (FACS) of PC14PE6 cells.
molecule,measurement,setting,value
B1,binding to 5T4 antigen construct,[1],+
same,binding to 5T4 antigen construct,[2],−
same,binding to 5T4 antigen construct,[3],+
same,binding to 5T4 antigen construct,[4],+
same,binding to 5T4 antigen construct,[5],+
same,binding to 5T4 antigen construct,[6],−
same,binding to 5T4-expressing PC14PE6 cells (in words),[7],significantly lower
